According to patent US20250206813A1 (NVH MEDICINAL, published 2025):

Columns and labels:
[1] = target: T1, PCPE-1 (Procollagen C-proteinase enhancer-1) glycoprotein, human (human, UniProt Q15113 26-449); assay: SPR, VHH injected on immobilized PCPE-1
T1 construct: mature; Secreted recombinant protein; also called purified human PCPE-1
T1 sequence (looked up): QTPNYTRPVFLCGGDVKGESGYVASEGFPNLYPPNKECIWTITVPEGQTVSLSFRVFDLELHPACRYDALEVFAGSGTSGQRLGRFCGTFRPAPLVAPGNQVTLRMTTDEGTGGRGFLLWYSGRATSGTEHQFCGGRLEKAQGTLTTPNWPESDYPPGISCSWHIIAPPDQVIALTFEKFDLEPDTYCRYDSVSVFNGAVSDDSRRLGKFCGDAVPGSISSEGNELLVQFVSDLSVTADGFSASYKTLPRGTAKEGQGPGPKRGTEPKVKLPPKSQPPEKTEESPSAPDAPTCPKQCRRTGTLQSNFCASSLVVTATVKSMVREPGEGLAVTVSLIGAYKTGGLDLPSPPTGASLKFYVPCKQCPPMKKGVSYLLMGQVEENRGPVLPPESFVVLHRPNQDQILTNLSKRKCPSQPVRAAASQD

[2] = target: T2, CUB2 domain of PCPE-1 (human, UniProt Q15113 159-273); assay: SPR competition: VHH (50 nM) co-injected with the soluble CUB2 domain (250 nM) over immobilized PCPE-1
T2 construct: domain: CUB2
T2 sequence (looked up): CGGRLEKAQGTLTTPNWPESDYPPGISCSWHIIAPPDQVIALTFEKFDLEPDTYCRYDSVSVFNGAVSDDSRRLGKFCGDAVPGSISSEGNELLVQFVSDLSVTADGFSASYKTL

[3] = target: T1, PCPE-1 (Procollagen C-proteinase …); assay: SPR competition: PCPE-1 (5 nM) co-injected with VHH on immobilized Mini III; VHH-H4 alone, 5 nM PCPE-1
Protocol: (§1) Surface plasmon resonance (SPR) experiments were carried out on a Biacore T200 (Cytiva). The ligand proteins, in solution in 10 mM HEPES pH 7.4 buffer for PCPE-1 or 10 mM sodium acetate pH 4.5 buffer for mini-procollagen III and streptavidin, are immobilized on CM5 chips by amine coupling. Analytes are diluted in running buffer (10 mM HEPES pH 7.4, 0.15 M NaCl, 5 mM CaCl₂), 0.05% P20) and injected at a flow rate of 30 or 50 μL/min. Competition, epitope binning and kinetics experiments were all carried out at 25° C. Regeneration was achieved by successive injection of 2 M guanidine chloride and 0.5 M EDTA for 30 sec. Sensorgrams were analyzed with Biacore T200 Evaluation v3.2.1 (Cytiva), using the most suitable models. IC50 was determined by non-linear regression using GraphPad Prism (v8.2.1).
(§2) What is more, their antagonistic effects are additive, and co-injection of a mixture of VHH-I5 and VHH-H4 with PCPE-1 virtually eliminates its interaction with Mini III.

[4] = target: T3, PCPE-2 (with a 6-his N-terminal tag) (UniProt Q9UKZ9 24-415); assay: SPR, biotinylated VHH on streptavidin chip, PCPE-2 injected
T3 construct: not shown: N-terminal 6-His tag
T3 sequence (looked up): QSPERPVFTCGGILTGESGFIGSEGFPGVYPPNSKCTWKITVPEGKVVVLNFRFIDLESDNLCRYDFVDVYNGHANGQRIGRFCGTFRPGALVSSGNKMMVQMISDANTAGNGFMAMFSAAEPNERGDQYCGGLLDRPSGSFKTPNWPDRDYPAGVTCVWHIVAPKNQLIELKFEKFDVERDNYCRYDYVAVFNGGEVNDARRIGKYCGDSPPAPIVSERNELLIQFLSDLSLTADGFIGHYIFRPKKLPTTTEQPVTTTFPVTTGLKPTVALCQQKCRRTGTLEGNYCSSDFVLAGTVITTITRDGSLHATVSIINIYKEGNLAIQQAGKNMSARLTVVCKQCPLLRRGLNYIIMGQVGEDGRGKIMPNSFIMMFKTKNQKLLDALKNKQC
Protocol: (§3) FIG. 2D: VHHs […] is biotinylated and immobilized on a streptavidin chip (813 RU), then increasing concentrations of PCPE-1 (black) or PCPE-2 (grey) are injected.
(§4) FIG. 2E: VHH H4 is biotinylated and immobilized on a streptavidin chip (491 RU), then increasing concentrations of PCPE-1 or PCPE-2 are injected. [0038] D, E: Interactions are modeled (dotted line) using the Langmuir model (Biacore T200 Evaluation software, Cytiva)
(§5) PCPE-2 is a protein in the same family as PCPE-1, with a 43% identical amino acid sequence. It shares certain activities with PCPE-1, but also has very different specific functions. The specificity of nanobody interaction for PCPE-1 versus PCPE-2 was analyzed by SPR. To achieve this, VHH-I5 and VHH-H4 were biotinylated at their C-terminus using sortase, then immobilized on a streptavidin surface. […] The affinity of VHH-I5 and -H4 for PCPE-1 is therefore at least 250 times greater than for PCPE-2.

[5] = target: T1, PCPE-1 (Procollagen C-proteinase …); assay: SPR, biotinylated VHH on streptavidin chip; reference PCPE-2
Protocol: as §3, §4, §5

[6] = target: T1, PCPE-1 (Procollagen C-proteinase …); assay: SPR, biotinylated VHH on streptavidin chip, PCPE-1 injected, 1:1 binding model
Protocol: as §3, §4, §5

[7] = target: T1, PCPE-1 (Procollagen C-proteinase …); assay: SPR competition: PCPE-1 (5 nM) co-injected with VHH on immobilized Mini III; VHH-I5 alone, 5 nM PCPE-1
Protocol: as §1, §2

[8] = target: T4, CUB1 domain of PCPE-1 (human, UniProt Q15113 37-149); assay: SPR competition: VHH (50 nM) co-injected with the soluble CUB1 domain (250 nM) over immobilized PCPE-1
T4 construct: domain: CUB1
T4 sequence (looked up): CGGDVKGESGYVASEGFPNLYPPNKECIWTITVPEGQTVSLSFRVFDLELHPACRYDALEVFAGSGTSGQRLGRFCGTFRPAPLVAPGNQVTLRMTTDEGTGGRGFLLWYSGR

| Binder | Kd [1] [nM] | further results |
| --- | --- | --- |
| VHH-H3 (VHH, Synthetic nanobody (hsd2ab library), pET29b(+) vector, pelB signal; not shown: C-terminal 6-His tag) VHH: EVQLQASGGGFVQPGGSLRLSCAASGATYWFSSMGWFRQAPGKEREFVSAISYWFDDIEYYADSVKGRFTISRDNSKNTVYLQMNSLRAEDTATYYCAMWNEQTGEEYWGQGTQVTVSS | > 250 |  |
| VHH-H6 (VHH, Synthetic nanobody (hsd2ab library), pET29b(+) vector, pelB signal; not shown: C-terminal 6-His tag) VHH: EVQLQASGGGFVQPGGSLRLSCAASGFTSARYNMGWFRQAPGKEREFVSAISRHTDRQTYYADSVKGRFTISRDNSKNTVYLQMNSLRAEDTATYYCAVGMMPKQKQYWGQGTQVTVSS | > 250 |  |
| VHH-H4 (VHH, Synthetic nanobody (hsd2ab library), pET29b(+) vector, pelB signal; also called nanobody-H4; not shown: C-terminal 6-His tag) VHH: EVQLQASGGGFVQPGGSLRLSCAASGFTSEISNMGWFRQAPGKEREFVSAISGTHTTQTYYADSVKGRFTISRDNSKNTVYLQMNSLRAEDTATYYCAAEQDMSDLWLGSYWGQGTQVTVSS | 30 | binding result [2]: no binding (tested: 250 nM); IC50 [3]: ~45 nM |
| VHH-H4 biotinylated at its C-terminus using sortase (VHH, C-terminal biotin (GGGK-biotin ligated by Sortase A at the LPETG site), pHEN vector with LPETG and 6-His; Captured on streptavidin; also called biotinylated VHH-H4; biotinylated H4 nanobody; not shown: GGGK-biotin ligated by Sortase A in place of the 6-His label) VHH: EVQLQASGGGFVQPGGSLRLSCAASGFTSEISNMGWFRQAPGKEREFVSAISGTHTTQTYYADSVKGRFTISRDNSKNTVYLQMNSLRAEDTATYYCAAEQDMSDLWLGSYWGQGTQVTVSS |  | Kd [4]: > 1000 nM; fold affinity for PCPE-1 over PCPE-2 [5]: ≥ 250 fold; Kd [6]: 3.88 nM; koff [6]: 0.0195 s⁻¹; kon [6]: 5.04e+06 M⁻¹ s⁻¹ |
| VHH-H1 (VHH, Synthetic nanobody (hsd2ab library), pET29b(+) vector, pelB signal; not shown: C-terminal 6-His tag) VHH: EVQLQASGGGFVQPGGSLRLSCAASGRTWSFYAMGWFRQAPGKEREFVSAISWNGGGEHYYADSVKGRFTISRDNSKNTVYLQMNSLRAEDTATYYCAHMEFSQSDYIISKWIYWGQGTQVTVSS | > 250 |  |
| VHH-H2 (VHH, Synthetic nanobody (hsd2ab library), pET29b(+) vector, pelB signal; not shown: C-terminal 6-His tag) VHH: EVQLQASGGGFVQPGGSLRLSCAASGSTSRDEGMGWFRQAPGKEREFVSAISRDHGWREYYADSVKGRFTISRDNSKNTVYLQMNSLRAEDTATYYCAPVIIDTMEVIPLYWGQGTQVTVSS | > 250 |  |
| VHH-H8 (VHH, Synthetic nanobody (hsd2ab library), pET29b(+) vector, pelB signal; not shown: C-terminal 6-His tag) VHH: EVQLQASGGGFVQPGGSLRLSCAASGYTSDLTVMGWFRQAPGKEREFVSAISSHFGPPHYYADSVKGRFTISRDNSKNTVYLQMNSLRAEDTATYYCAMRERRHSWWYWGQGTQVTVSS | > 250 |  |
| VHH-I2 (VHH, Llama nanobody, pHEN6 vector, pelB signal, produced in E. coli periplasm; also called nanobody I2; not shown: C-terminal 6-His tag) VHH: QVQLVESGGGWVQPGGSLRLSCAASGITFSTKTMGWYRQRPGKRREWIGSISPTGFTNYADAVKGRVTISRDNGENTVYLQMNSLKPEDTAVYFCNGVPPVIIDGQSVAYWGQGTQVTVSS | 154 |  |
| VHH-I4 (VHH, Llama nanobody, pHEN6 vector, pelB signal, produced in E. coli periplasm; also called nanobody I4; not shown: C-terminal 6-His tag) VHH: QVQLVESGGGSVAAGESLTLSCRMSGSTSSIQAMGWYRRAPGNQREWLATISPRGNTNYADSVKGRFTISRDNAKNTVYLQMNSLKPADTAVYYCNTVPSGGIPWGQGTQVTVSS | > 250 |  |
| VHH-H7 (VHH, Synthetic nanobody (hsd2ab library), pET29b(+) vector, pelB signal; not shown: C-terminal 6-His tag) VHH: EVQLQASGGGFVQPGGSLRLSCAASGYYFRGEDMGWFRQAPGKEREFVSAISDDSTATIYYADSVKGRFTISRDNSKNTVYLQMNSLRAEDTATYYCAPGWYIYLDWSESGSAYWGQGTQVTVSS | 152 |  |
| VHH-I5 biotinylated at its C-terminus using sortase (VHH, C-terminal biotin (GGGK-biotin ligated by Sortase A at the LPETG site), pHEN vector with LPETG and 6-His; Captured on streptavidin; also called biotinylated VHH-I5; not shown: GGGK-biotin ligated by Sortase A in place of the 6-His label) VHH: QVQLVESGGGLVQPGGFLRLLCTASGNIFSSNTMGWYRRAPGKQREWVASISKGGSTNYADSVKDRFTISRSITKNTVYLQMVNLKPEDTAVYYCNPVPDSDNYASGQGTQVTVSS |  | Kd [4]: > 1000 nM; fold affinity for PCPE-1 over PCPE-2 [5]: ≥ 250 fold; Kd [6]: 1.45 nM; koff [6]: 0.00136 s⁻¹; kon [6]: 937000 M⁻¹ s⁻¹ |
| VHH-I5 (VHH, Llama nanobody, pHEN6 vector, pelB signal, produced in E. coli periplasm; also called nanobody-I5; 15; not shown: C-terminal 6-His tag) VHH: QVQLVESGGGLVQPGGFLRLLCTASGNIFSSNTMGWYRRAPGKQREWVASISKGGSTNYADSVKDRFTISRSITKNTVYLQMVNLKPEDTAVYYCNPVPDSDNYASGQGTQVTVSS | 7.2 | IC50 [7]: ~24 nM |
| VHH-H9 (VHH, Synthetic nanobody (hsd2ab library), pET29b(+) vector, pelB signal; not shown: C-terminal 6-His tag) VHH: EVQLQASGGGFVQPGGSLRLSCAASGDTFNLTTMGWFRQAPGKEREFVSAISSSNTHIAYYADSVKGRFTISRDNSKNTVYLQMNSLRAEDTATYYCAYTYYGKNGKGMVYWGQGTQVTVSS | > 250 |  |
| VHH-I7 (VHH, Llama nanobody, pHEN6 vector, pelB signal, produced in E. coli periplasm; also called nanobody I7; 17; not shown: C-terminal 6-His tag) VHH: QVQLVESGGGLVPPGGSLKLSCTASGSIFSSNVMGWYRRAPGKQREWVASISRGGGTNYPDSVKGRFTVSRDIAKNTVYLQISSLKPEDTAVYYCNPIPYSGDYVSGQGTQVTVSS | 12.8 |  |
| VHH-I11 (VHH, Llama nanobody, pHEN6 vector, pelB signal, produced in E. coli periplasm; also called nanobody I11; not shown: C-terminal 6-His tag) VHH: QVQLVESGGGTVQAGGSLRLSCTASGRGRNAMGWYRQVPGGKRELVASINRGGTTDYTDSVKDRFTISRDSAKNTVYLQMDSLQPEDTAVYYCNAESTVIPGHIYDYWGRGTQVTVSS | 161 |  |
| VHH-I3 (VHH, Llama nanobody, pHEN6 vector, pelB signal, produced in E. coli periplasm; also called nanobody I3; 13; not shown: C-terminal 6-His tag) VHH: QVQLVESGGGLVEPGGSLRLSCAVSGSTFSMNVMGWYRQAPGKHREWVGSIGTGGGTNYPDSVKGRFTISRDNVKKTVYLQMNSLKPEDTAVYYCNKIPHNWGWGQGTQVTVSS | 16 | binding result [8]: no binding (tested: 250 nM) |
| VHH-H10 (VHH, Synthetic nanobody (hsd2ab library), pET29b(+) vector, pelB signal; not shown: C-terminal 6-His tag) VHH: EVQLQASGGGFVQPGGSLRLSCAASGYGWWIYEMGWFRQAPGKEREFVSAISWADGTRTYYADSVKGRFTISRDNSKNTVYLQMNSLRAEDTATYYCAIYILEGTQGVPIYWGQGTQVTVSS | 18 | binding result [2]: no binding (tested: 250 nM) |
